Data from patent US20020198143A1 (Human Genome Sciences, published 2002).

Target: T1, human B7-H3 protein expressed on transfected 293 cells (human, UniProt Q5ZPR3 29-534)
T1 construct: also called B7-H3/293 cells
T1 sequence: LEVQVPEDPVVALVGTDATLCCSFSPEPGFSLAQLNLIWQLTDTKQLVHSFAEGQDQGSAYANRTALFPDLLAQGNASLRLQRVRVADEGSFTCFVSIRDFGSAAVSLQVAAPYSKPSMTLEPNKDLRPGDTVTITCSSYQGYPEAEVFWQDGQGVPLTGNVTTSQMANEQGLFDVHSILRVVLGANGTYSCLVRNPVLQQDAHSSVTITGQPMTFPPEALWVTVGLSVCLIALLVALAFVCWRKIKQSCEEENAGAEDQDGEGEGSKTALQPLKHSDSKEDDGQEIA
Test: FACS on 293 cells transfected with B7-H3
Description: It has been reported that both CTLA-4 nd ICOS can be induced to express on the surface of activated T cells, while CD28 expresses constitutively.

binding result: no binding
B1: ICOSIg (Fc fusion, UniProt Q9Y6W8 21-140, looked up)
chain: EINGSANYEMFIFHNGGVQILCKYPDIVQQFKMQLLKGGQILCDLTKTKGSGNTVSIKSLKFCHSQLSNNSVSFFLYNLDHSHANYYFCNLSIFDPPPFKVTLTGGYLHIYESQLCCQLK
notes: extracellular domain; not shown: Fc constant region of mouse IgG2a, inferred from 'similar methods'
